For assay [1], the target named is filamentous actin (F-actin) polymerized from G-actin purified from rabbit skeletal muscle (rabbit) (UniProt P68135).
The target is the same in assay [2]. The source holds these as a separate data set.

The substance “ABS optoCAST (ABS opto1: mCherry-AsLOV2(403-540)-ABS) (from UniProt O49003 403-540) (designed binder)” displayed a percent activation of localisation to F-actin (0% inactive optoCAST, 100% ABM only) in live HeLa cells under blue light in assay [1] of 80%.
In assay [2], “ABS pepCAST (ABS pep6: SZ3-linker-ABS-linker-SZ4-eGFP) (designed binder)” yielded a percent activation of localisation to F-actin (0% inactive pepCAST, 100% ABM only) in live HeLa cells that co-express SZ21 greater than 80%.

Source of the values: PMC11239668.
